Assay results reported in the supplement of paper PMC5998384.

Assays:
HeLa Kyoto [1] = assay: solubility in G1/S (NP-40 vs SDS abundance) (log2 ratio); higher = more soluble; conditions: cell cycle stage: G1/S
HeLa Kyoto [2] = assay: thermal stability score vs G1/S (z-score of summed log2 fold changes over temperatures); higher = more thermally stable than in G1/S
HeLa Kyoto [3] = assay: solubility change mitosis vs G1/S (difference of NP-40 vs SDS log2 ratios) (log2 ratio difference); higher = more soluble in mitosis
HeLa Kyoto [4] = assay: melting temperature (median over replicates), in situ; higher = more thermally stable
[5] = cell cycle stage: early G1 (4.5 h after nocodazole release)
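Throughout, for melting temperature (median over replicates), in situ: HeLa Kyoto cells synchronized by double thymidine or nocodazole block, proteins quantified by TMT10plex mass spectrometry, three independent biological replicates.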
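Throughout, for solubility change mitosis vs G1/S (difference of NP-40 vs SDS log2 ratios): synchronized HeLa Kyoto cells (double thymidine block for G1/S, nocodazole release for mitosis), protein amounts in NP-40 versus SDS lysates quantified by mass spectrometry, three biological replicates.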
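Throughout, for solubility in G1/S (NP-40 vs SDS abundance): HeLa Kyoto cells arrested at G1/S by double thymidine block, proteins quantified by TMT10plex mass spectrometry in mild NP-40 versus SDS extracts, three biological replicates.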
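Throughout, for thermal stability score vs G1/S (z-score of summed log2 fold changes over temperatures): synchronized HeLa Kyoto cells, proteins quantified by TMT10plex mass spectrometry, three biological replicates, mitosis taken 0.5 h after nocodazole release, G1/S directly after double thymidine block.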

Sequence of DENND4C (chain, as listed by the source): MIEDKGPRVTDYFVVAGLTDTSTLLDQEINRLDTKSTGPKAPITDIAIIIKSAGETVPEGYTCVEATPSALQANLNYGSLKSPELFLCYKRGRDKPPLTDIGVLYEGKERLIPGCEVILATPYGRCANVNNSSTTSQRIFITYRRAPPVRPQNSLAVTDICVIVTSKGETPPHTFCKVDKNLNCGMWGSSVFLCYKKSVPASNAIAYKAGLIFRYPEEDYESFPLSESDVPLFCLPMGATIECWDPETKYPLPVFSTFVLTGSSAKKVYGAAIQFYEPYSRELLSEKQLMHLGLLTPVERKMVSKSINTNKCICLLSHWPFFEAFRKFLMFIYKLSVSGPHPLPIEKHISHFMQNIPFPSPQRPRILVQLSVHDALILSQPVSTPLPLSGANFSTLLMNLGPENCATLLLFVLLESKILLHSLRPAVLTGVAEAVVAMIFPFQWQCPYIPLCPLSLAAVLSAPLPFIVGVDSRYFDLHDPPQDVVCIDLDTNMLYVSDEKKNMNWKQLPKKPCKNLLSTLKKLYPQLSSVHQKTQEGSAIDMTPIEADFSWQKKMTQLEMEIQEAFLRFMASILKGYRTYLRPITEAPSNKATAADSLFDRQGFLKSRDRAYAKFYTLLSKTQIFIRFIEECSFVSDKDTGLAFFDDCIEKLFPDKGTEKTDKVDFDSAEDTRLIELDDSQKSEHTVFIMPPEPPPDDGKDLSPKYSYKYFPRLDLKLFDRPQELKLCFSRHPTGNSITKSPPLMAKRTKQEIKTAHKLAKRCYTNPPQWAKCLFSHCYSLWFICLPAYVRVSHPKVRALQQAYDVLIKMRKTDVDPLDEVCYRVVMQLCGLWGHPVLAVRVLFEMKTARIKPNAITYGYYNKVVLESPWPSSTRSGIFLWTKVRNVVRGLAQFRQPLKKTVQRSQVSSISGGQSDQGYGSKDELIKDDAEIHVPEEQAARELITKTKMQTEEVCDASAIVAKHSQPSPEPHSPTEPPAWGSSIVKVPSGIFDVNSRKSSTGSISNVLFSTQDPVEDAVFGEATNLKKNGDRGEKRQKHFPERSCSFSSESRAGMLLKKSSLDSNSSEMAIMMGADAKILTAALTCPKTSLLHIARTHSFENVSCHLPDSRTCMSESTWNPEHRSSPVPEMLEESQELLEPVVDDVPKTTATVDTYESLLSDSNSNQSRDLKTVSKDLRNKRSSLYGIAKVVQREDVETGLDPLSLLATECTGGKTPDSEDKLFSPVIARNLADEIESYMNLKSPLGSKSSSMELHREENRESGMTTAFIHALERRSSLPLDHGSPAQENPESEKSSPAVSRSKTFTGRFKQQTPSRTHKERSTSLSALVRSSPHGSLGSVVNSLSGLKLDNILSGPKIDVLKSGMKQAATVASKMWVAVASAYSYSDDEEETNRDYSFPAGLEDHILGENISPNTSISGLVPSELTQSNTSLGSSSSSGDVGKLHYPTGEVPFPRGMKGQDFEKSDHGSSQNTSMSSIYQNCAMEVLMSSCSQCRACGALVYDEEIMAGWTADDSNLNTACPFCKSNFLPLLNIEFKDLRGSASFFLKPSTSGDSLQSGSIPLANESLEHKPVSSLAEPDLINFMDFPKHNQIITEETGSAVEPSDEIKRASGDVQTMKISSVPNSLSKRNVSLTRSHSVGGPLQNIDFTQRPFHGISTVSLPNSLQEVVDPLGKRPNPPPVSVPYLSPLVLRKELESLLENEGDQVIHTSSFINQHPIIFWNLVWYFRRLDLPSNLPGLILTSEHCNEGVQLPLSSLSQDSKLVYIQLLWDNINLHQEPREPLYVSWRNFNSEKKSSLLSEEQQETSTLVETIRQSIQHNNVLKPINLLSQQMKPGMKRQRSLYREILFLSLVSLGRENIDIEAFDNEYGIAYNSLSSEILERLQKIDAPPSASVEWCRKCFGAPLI

Row | Substance | solubility in G1/S (log2) (HeLa Kyoto [1]) | thermal stability score (HeLa Kyoto [2]; [5]) | thermal stability score (HeLa Kyoto [2]; cell cycle stage: mitosis) | solubility change mitosis (log2) (HeLa Kyoto [3]) | melting temperature (HeLa Kyoto [4]; cell cycle stage: G1/S) [°C] | melting temperature (HeLa Kyoto [4]; cell cycle stage: mitosis) [°C]
1 | MSRSPDAKEDPVECPLCMEPLEIDDINFFPCTCGYQICRFCWHRIRTDENGLCPACRKPYPEDPAVYKPLSQEELQRIKNEKKQKQNERKQKISENRKHLASVRVVQKNLVFVVGLSQRLADPEVLKRPEYFGKFGKIHKVVINNSTSYAGSQGPSASAYVTYIRSEDALRAIQCVNNVVVDGRTLKASLGTTKYCSYFLKNMQCPKPDCMYLHELGDEAASFTKEEMQAGKHQEYEQKLLQELYKLNPNFLQLSTGSVDKNKNKVTPLQRYDTPIDKPSDSLSIGNGDNSQQISNSDTPSPPPGLSKSNPVIPISSSNHSARSPFEGAVTESQSLFSDNFRHPNPIPSGLPPFPSSPQTSSDWPTAPEPQSLFTSETIPVSSSTDWQAAFGFGSSKQPEDDLGFDPFDVTRKALADLIEKELSVQDQPSLSPTSLQNSSSHTTTAKGPGSGFLHPAAATNANSLNSTFSVLPQRFPQFQQHRAVYNSFSFPGQAARYPWMAFPRNSIMHLNHTANPTSNSNFLDLNLPPQHNTGLGGIPVAGEEEVKVSTMPLSTSSHSLQQGQQPTSLHTTVA [CNOT4] | 0.401 | 1.12 | 0.182 | 0.0198 | 52.7 | 53
2 | MVFPAKRFCLVPSMEGVRWAFSCGTWLPSRAEWLLAVRSIQPEEKERIGQFVFARDAKAAMAGRLMIRKLVAEKLNIPWNHIRLQRTAKGKPVLAKDSSNPYPNFNFNISHQGDYAVLAAEPELQVGIDIMKTSFPGRGSIPEFFHIMKRKFTNKEWETIRSFKDEWTQLDMFYRNWALKESFIKAIGVGLGFELQRLEFDLSPLNLDIGQVYKETRLFLDGEEEKEWAFEESKIDEHHFVAVALRKPDGSRHQDVPSQDDSKPTQRQFTILNFNDLMSSAVPMTPEDPSFWDCFCFTEEIPIRNGTKS [AASDHPPT] | 0.0817 | 0.145 | -0.453 | -0.124 | 52.3 | 52.4
3 | MAGSRLPRQLFLQGVAAVFMFAFASLYTQIPGLYGPEGILPARRTLRPQGKGRWQQLWETPTLLWEAPRLGLDTAQGLELLSLLGALVALGALLLSPLRHPVIYLLLWAAYLSACQVGQVFLYFQWDSLLLETGFLAVLVAPLRPASHRKEAPQGRQAGALPHEDLPFWLVRWLLFRLMFASGVVKLTSRCPAWWGLTALTYHYETQCLPTPAAWFAHHLPVWLHKLSVVATFLIEIAVPPLFFAPIRRLRLAAFYSQVLLQVLIIITGNYNFFNLMTLVLTTALLDDQHLAAEPGHGSRKKTATSWPKALLATLSLLLELAVYGLLAYGTVHYFGLEVDWQQRTIHSRTTFTFHQFSQWLKTLTLPTVWLGVASLVWELLSALWRWTQVRGWLRKLSAVVQLSLVGTATVALFLISLVPYSYVEPGTHGRLWTGAHRLFGAVEHLQLANSYGLFRRMTGLGGRPEVVLEGSYDGHHWTEIEFMYKPGNLSRPPPVVVPHQPRLDWQMWFAALGPHTHSPWFTSLVLRLLQGKEPVIRLVQSQVARYPFHKQPPTYVRAQRYKYWFSQPGEQGQWWRRQWVEEFFPSVSLGDPTLETLLRQFGLQEKSPPRTRSANSTLAQALHWTRSQLSPLEAPALLWGLLMAVGAVRFVQALLAPCSLRSSPLAPVSGEKRRPASQKDSGAASEQATAAPNPCSSSSRTTRRKK [LMF2] | -0.171 | -0.462 | -1.11 | -0.0691 | 51.9 | 52.8
4 | MSSAPRRPAKGADSFCTPEPESLGPGTPGFPEQEEDELHRTLGVERFEEILQEAGSRGGEEPGRSYGEEDFEYHRQSSHHIHHPLSTHLPPDARRRKTPQGPGRKPRRRPGASPTGETPTIEEGEEDEDEASEAEGARALTQPSPVSTPSSVQFFLQEDDSADRKAERTSPSSPAPLPHQEATPRASKGAQAGTQVEEAEAEAVAVASGTAGGDDGGASGRPLPKAQPGHRSYNLQERRRIGSMTGAEQALLPRVPTDEIEAQTLATADLDLMKSHRFEDVPGVRRHLVRKNAKGSTQSGREGREPGPTPRARPRAPHKPHEVFVELNELLLDKNQEPQWRETARWIKFEEDVEEETERWGKPHVASLSFRSLLELRRTLAHGAVLLDLDQQTLPGVAHQVVEQMVISDQIKAEDRANVLRALLLKHSHPSDEKDFSFPRNISAGSLGSLLGHHHGQGAESDPHVTEPLMGGVPETRLEVERERELPPPAPPAGITRSKSKHELKLLEKIPENAEATVVLVGCVEFLSRPTMAFVRLREAVELDAVLEVPVPVRFLFLLLGPSSANMDYHEIGRSISTLMSDKQFHEAAYLADEREDLLTAINAFLDCSVVLPPSEVQGEELLRSVAHFQRQMLKKREEQGRLLPTGAGLEPKSAQDKALLQMVEAAGAAEDDPLRRTGRPFGGLIRDVRRRYPHYLSDFRDALDPQCLAAVIFIYFAALSPAITFGGLLGEKTQDLIGVSELIMSTALQGVVFCLLGAQPLLVIGFSGPLLVFEEAFFSFCSSNHLEYLVGRVWIGFWLVFLALLMVALEGSFLVRFVSRFTQEIFAFLISLIFIYETFYKLVKIFQEHPLHGCSASNSSEVDGGENMTWAGARPTLGPGNRSLAGQSGQGKPRGQPNTALLSLVLMAGTFFIAFFLRKFKNSRFFPGRIRRVIGDFGVPIAILIMVLVDYSIEDTYTQKLSVPSGFSVTAPEKRGWVINPLGEKSPFPVWMMVASLLPAILVFILIFMETQITTLIISKKERMLQKGSGFHLDLLLIVAMGGICALFGLPWLAAATVRSVTHANALTVMSKAVAPGDKPKIQEVKEQRVTGLLVALLVGLSIVIGDLLRQIPLAVLFGIFLYMGVTSLNGIQFYERLHLLLMPPKHHPDVTYVKKVRTLRMHLFTALQLLCLALLWAVMSTAASLAFPFILILTVPLRMVVLTRIFTDREMKCLDANEAEPVFDEREGVDEYNEMPMPV [SLC4A2] | 0.054 | 0.464 | -0.912 | 0.0677 | 53.9 | 54.1
5 | DENND4C | 0.0629 | 0.187 | 0.554 | -0.154 | 50.6 | 50.8
6 | MDDQGCPRCKTTKYRNPSLKLMVNVCGHTLCESCVDLLFVRGAGNCPECGTPLRKSNFRVQLFEDPTVDKEVEIRKKVLKIYNKREEDFPSLREYNDFLEEVEEIVFNLTNNVDLDNTKKKMEIYQKENKDVIQKNKLKLTREQEELEEALEVERQENEQRRLFIQKEEQLQQILKRKNKQAFLDELESSDLPVALLLAQHKDRSTQLEMQLEKPKPVKPVTFSTGIKMGQHISLAPIHKLEEALYEYQPLQIETYGPHVPELEMLGRLGYLNHVRAASPQDLAGGYTSSLACHRALQDAFSGLFWQPS [MNAT1] | -0.181 | -0.397 | -0.426 | 0.565 | 52.1 | 53
